What was measured:
[1] = target: T1, BLM-dWH (Homo sapiens, UniProt P54132 642-1077); experiment: fluorescence anisotropy; no ATP; 5 mM MgCl2; 50 mM Tris-HCl pH 7.5, 50 mM NaCl, 1 mM DTT, 5 mM MgCl2, 50 µg/mL BSA, 25 °C; 10 nM labeled DNA in direct titrations; details: protein: recombinant; label: 3'-fluorescein; single strand
[2] = target: T2, BLMFL (Homo sapiens, UniProt P54132 1-1417); experiment: as above; details: protein: recombinant; label: 3'-fluorescein; single strand
[3] = target: T3, BLMCR (Homo sapiens, UniProt P54132 642-1290); experiment: as above; details: protein: recombinant; label: 3'-fluorescein; single strand
[4] = target: T4, BLM-dH (Homo sapiens, UniProt P54132 642-1191); experiment: as above; details: protein: recombinant; label: 3'-fluorescein; single strand
[5] = target: T1, BLM-dWH; experiment: competition fluorescence anisotropy; vs ss54-FLU; 5 mM MgCl2; 50 mM Tris-HCl pH 7.5, 50 mM NaCl, 1 mM DTT, 5 mM MgCl2, 50 µg/mL BSA, 25 °C; 10 nM labeled DNA in direct titrations; details: protein: recombinant, label: 5'-Cy3 on D3
[6] = target: T2, BLMFL; experiment: as above; details: protein: recombinant, label: 5'-Cy3 on D3
[7] = target: T3, BLMCR; experiment: as above; details: protein: recombinant, label: 5'-Cy3 on D3
[8] = target: T4, BLM-dH; experiment: as above; details: protein: recombinant, label: 5'-Cy3 on D3
[9] = target: TOPOIIIalpha (TRR complex);RMI1 (TRR complex);RMI2 (TRR complex) (Homo sapiens;Homo sapiens;Homo sapiens, UniProt Q13472;Q9H9A7;Q96E14 1-1001;1-625;1-147, ||); experiment: fluorescence anisotropy; 5 mM MgCl2; 50 mM Tris-HCl pH 7.5, 50 mM NaCl, 1 mM DTT, 5 mM MgCl2, 50 µg/mL BSA, 25 °C; 10 nM labeled DNA in direct titrations; details: protein: recombinant;recombinant;recombinant, tags: His;;, copies: 1;1;1, label: fluorescein on D3 (in place of Cy3)
[10] = three-stranded D-loop-like structure (D1+D2+D3), D3 3' part invades and pairs with D1
[11] = four-stranded D-loop-like structure (D1+D2+D3+D4), D3 3' part pairs with D1, 5' part with D4
[12] = 20 bp duplex, 3' overhang 21 nt on D3

T3 sequence (P54132 642-1290): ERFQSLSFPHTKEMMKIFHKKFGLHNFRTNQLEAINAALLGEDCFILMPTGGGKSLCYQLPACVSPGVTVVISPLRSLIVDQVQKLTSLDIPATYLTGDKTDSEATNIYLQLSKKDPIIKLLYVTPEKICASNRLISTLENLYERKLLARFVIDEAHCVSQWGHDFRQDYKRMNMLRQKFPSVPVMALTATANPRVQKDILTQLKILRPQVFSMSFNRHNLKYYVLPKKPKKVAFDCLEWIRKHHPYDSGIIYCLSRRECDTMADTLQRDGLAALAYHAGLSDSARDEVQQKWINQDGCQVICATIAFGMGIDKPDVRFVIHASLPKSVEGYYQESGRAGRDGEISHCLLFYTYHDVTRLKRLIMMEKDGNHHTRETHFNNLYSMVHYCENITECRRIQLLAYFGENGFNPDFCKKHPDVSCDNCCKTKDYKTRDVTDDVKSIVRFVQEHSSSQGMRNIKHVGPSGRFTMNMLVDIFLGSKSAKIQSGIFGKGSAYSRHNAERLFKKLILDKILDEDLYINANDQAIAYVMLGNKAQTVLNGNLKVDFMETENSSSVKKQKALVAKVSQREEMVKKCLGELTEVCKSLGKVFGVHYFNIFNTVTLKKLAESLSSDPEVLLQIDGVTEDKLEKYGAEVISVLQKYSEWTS
T1 sequence (P54132 642-1077): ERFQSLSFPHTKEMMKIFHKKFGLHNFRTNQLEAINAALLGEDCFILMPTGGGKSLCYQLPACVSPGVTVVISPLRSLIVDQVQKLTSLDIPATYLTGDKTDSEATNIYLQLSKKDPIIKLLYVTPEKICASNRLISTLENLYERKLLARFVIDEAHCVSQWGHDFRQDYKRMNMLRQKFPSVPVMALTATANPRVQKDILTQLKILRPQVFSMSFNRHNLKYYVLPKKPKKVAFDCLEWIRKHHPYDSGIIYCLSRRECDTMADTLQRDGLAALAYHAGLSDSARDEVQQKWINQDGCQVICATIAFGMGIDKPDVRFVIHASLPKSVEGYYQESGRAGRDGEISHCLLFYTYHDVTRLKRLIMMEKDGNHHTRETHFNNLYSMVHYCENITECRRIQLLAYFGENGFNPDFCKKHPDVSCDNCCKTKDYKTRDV
T2 sequence (P54132 whole entry): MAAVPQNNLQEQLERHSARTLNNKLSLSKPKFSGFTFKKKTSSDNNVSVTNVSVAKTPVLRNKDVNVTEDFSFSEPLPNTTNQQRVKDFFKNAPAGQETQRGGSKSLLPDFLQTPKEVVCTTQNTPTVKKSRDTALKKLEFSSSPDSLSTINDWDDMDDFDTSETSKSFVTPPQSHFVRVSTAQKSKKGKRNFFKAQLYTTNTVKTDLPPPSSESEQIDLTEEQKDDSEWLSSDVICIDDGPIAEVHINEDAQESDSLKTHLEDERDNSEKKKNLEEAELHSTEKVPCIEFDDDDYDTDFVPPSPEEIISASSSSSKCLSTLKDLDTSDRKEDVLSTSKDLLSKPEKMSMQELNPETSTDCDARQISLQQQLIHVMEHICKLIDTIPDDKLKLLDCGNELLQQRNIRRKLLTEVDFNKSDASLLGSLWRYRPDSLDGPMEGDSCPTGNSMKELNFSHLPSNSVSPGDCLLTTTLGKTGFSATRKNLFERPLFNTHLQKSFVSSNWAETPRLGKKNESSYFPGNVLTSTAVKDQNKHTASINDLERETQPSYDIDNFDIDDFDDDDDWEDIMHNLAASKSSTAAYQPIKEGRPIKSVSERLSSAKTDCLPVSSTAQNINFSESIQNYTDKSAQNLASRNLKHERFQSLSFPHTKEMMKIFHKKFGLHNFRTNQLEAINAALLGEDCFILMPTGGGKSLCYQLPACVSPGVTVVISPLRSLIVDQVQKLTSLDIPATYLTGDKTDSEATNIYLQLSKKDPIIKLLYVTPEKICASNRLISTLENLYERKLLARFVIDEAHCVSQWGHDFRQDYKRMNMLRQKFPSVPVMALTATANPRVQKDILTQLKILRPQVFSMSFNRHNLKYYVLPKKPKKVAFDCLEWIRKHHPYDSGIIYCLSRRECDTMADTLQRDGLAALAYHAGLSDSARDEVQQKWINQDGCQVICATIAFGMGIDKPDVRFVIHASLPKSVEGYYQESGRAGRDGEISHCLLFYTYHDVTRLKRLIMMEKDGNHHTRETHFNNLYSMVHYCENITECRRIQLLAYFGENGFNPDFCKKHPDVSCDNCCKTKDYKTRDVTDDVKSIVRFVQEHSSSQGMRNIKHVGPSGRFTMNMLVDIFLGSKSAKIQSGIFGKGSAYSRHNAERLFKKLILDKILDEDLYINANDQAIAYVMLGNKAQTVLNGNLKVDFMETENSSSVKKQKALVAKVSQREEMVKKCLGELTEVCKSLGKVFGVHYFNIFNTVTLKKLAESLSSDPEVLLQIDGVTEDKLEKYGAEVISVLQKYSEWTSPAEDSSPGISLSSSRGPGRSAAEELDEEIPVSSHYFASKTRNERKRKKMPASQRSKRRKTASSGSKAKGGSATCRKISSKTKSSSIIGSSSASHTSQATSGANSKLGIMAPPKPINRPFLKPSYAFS
T4 sequence (P54132 642-1191): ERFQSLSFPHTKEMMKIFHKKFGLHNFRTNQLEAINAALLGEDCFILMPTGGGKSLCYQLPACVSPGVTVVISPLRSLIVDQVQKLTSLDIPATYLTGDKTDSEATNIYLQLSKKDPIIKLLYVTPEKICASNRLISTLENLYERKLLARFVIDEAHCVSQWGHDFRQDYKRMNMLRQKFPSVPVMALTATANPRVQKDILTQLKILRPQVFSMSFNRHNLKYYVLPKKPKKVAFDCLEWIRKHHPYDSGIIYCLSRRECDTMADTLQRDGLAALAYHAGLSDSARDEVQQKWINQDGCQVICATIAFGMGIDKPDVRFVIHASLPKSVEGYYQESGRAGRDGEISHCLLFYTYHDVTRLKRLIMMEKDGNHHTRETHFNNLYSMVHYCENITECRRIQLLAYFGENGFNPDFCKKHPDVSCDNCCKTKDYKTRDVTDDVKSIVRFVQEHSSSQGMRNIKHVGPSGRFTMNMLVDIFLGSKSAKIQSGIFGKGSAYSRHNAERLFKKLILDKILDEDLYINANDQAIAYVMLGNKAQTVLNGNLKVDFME
Sequence of TOPOIIIalpha (TRR complex);RMI1 (TRR complex);RMI2 (TRR complex) (Q13472 whole entry, chain 1 of 3): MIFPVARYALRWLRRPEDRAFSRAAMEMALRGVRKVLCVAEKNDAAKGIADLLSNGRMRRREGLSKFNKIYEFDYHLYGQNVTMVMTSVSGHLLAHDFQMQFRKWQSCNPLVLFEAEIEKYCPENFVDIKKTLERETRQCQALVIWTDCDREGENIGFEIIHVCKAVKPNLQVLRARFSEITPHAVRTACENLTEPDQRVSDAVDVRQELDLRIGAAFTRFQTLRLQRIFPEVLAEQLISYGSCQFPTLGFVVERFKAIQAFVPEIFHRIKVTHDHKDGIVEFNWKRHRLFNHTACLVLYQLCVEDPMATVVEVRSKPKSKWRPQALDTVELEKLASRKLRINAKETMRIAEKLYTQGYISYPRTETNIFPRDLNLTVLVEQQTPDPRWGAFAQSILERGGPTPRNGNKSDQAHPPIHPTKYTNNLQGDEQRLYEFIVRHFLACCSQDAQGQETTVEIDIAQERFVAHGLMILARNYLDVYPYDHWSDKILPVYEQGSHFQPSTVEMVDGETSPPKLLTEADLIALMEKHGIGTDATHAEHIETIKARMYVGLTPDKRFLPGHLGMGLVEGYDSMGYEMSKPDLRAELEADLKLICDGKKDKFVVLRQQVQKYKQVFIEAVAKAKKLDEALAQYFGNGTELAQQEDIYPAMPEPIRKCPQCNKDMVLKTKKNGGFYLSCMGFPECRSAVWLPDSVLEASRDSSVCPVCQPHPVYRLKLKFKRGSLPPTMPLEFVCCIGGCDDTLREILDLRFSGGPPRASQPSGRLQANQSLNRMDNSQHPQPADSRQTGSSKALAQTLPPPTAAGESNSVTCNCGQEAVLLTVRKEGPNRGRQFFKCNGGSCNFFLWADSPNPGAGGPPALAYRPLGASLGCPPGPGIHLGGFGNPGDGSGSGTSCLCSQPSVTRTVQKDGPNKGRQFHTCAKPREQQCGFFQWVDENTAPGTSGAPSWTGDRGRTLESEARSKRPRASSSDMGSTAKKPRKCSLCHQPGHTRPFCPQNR
Sequence of TOPOIIIalpha (TRR complex);RMI1 (TRR complex);RMI2 (TRR complex) (Q9H9A7 whole entry, chain 2 of 3): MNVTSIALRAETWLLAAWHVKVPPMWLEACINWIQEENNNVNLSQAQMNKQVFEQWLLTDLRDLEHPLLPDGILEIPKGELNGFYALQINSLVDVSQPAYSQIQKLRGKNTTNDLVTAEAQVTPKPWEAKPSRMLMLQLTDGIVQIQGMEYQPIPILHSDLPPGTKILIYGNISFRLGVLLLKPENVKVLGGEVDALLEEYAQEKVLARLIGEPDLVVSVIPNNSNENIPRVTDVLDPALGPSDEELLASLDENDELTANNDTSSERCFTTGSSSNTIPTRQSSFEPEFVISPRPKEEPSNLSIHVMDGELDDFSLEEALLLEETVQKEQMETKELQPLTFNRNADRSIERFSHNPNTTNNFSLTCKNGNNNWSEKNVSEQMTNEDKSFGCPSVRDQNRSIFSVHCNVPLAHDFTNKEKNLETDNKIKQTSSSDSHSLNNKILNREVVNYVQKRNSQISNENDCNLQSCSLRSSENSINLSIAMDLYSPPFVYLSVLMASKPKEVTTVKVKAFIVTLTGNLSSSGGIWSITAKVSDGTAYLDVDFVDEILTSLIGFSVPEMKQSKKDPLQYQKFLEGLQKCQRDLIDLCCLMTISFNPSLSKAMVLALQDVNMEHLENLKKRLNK
Sequence of TOPOIIIalpha (TRR complex);RMI1 (TRR complex);RMI2 (TRR complex) (Q96E14 whole entry, chain 3 of 3): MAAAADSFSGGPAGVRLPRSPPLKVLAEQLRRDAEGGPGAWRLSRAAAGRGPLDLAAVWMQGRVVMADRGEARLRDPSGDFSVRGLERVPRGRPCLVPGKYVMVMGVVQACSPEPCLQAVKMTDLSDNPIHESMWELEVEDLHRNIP

B1: ss54-FLU (ssDNA)
DNA: TCCTTTTGATAAGAGGTCATTTTTGCGGATGGCTTAGAGCTTAATTGCGCAACG
Kd [1]: 520 ± 30 nM | Kd [2]: 61 ± 10 nM | Kd [3]: 74 ± 14 nM | Kd [4]: 61 ± 16 nM

B2: DL3 (Cy3) (structured_DNA)
DNA 1: GACGCTGCCGAATTCTACCAGTGCCTTGCTAGGACATCTTTGCCCACCTGCAGGTTCACCC
DNA 2: GGGTGAACCTGCAGGTGGGCGGCTGCTCATCGTAGGTTAGTTGGTAGAATTCGGCAGCGTC
DNA 3: TAAGAGCAAGATGTTCTATAAAAGATGTCCTAGCAAGGCAC
Kd [5, 10]: 56 ± 7 nM | Kd [6, 10]: 1.2 ± 0.8 nM | Kd [7, 10]: < 1 nM | Kd [8, 10]: < 1 nM

B3: DL4 (Cy3) (structured_DNA)
DNA 1: GACGCTGCCGAATTCTACCAGTGCCTTGCTAGGACATCTTTGCCCACCTGCAGGTTCACCC
DNA 2: GGGTGAACCTGCAGGTGGGCGGCTGCTCATCGTAGGTTAGTTGGTAGAATTCGGCAGCGTC
DNA 3: TAAGAGCAAGATGTTCTATAAAAGATGTCCTAGCAAGGCAC
DNA 4: TATAGAACATCTTGCTCTTA
Kd [5, 11]: 56 ± 13 nM | Kd [6, 11]: 2.3 ± 1.3 nM | Kd [7, 11]: < 1 nM | Kd [8, 11]: < 1 nM

B4: DL3 (fluorescein) (structured_DNA)
DNA 1: GACGCTGCCGAATTCTACCAGTGCCTTGCTAGGACATCTTTGCCCACCTGCAGGTTCACCC
DNA 2: GGGTGAACCTGCAGGTGGGCGGCTGCTCATCGTAGGTTAGTTGGTAGAATTCGGCAGCGTC
DNA 3: TAAGAGCAAGATGTTCTATAAAAGATGTCCTAGCAAGGCAC
Kd ([9]; three-stranded D-loop-like structure (D1+D2+D3)): 13 ± 1 nM

B5: DL4 (fluorescein) (structured_DNA)
DNA 1: GACGCTGCCGAATTCTACCAGTGCCTTGCTAGGACATCTTTGCCCACCTGCAGGTTCACCC
DNA 2: GGGTGAACCTGCAGGTGGGCGGCTGCTCATCGTAGGTTAGTTGGTAGAATTCGGCAGCGTC
DNA 3: TAAGAGCAAGATGTTCTATAAAAGATGTCCTAGCAAGGCAC
DNA 4: TATAGAACATCTTGCTCTTA
Kd ([9]; four-stranded D-loop-like structure (D1+D2+D3+D4)): 488 ± 70 nM

B6: 3T (Cy3) (dsDNA)
DNA 1: TAAGAGCAAGATGTTCTATAAAAGATGTCCTAGCAAGGCAC
DNA 2: TATAGAACATCTTGCTCTTA
Kd [5, 12]: 430 ± 70 nM | Kd [6, 12]: 10 ± 3 nM | Kd [7, 12]: 24 ± 2 nM | Kd [8, 12]: 39 ± 3 nM

Source: article PMC8813930, “The toposiomerase IIIalpha-RMI1-RMI2 complex orients human Bloom’s syndrome helicase for efficient disruption of D-loops”
